In the supplement of paper PMC9112550, “Optimization of the antimicrobial peptide Bac7 by deep mutational scanning” (BMC Biology, 2022):

Test system: Escherichia coli TOP10
Assay: shrunken log2 fold change of peptide-encoding DNA abundance (4.5 h post-induction vs induction); higher = less antimicrobial activity (less host growth inhibition)
Conditions: time post-induction: 4.5 h; library: site-saturation at positions 5, 18, 19, 20
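Note: peptides expressed intracellularly from a pBAD plasmid library in pooled LB shake-flask culture, induced with 0.3% L-arabinose, DNA abundance read by NGS, three biological replicates, DESeq2 with apeglm shrinkage.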

Sequence | shrunken log2 fold change
RRIRARPPRLPRPRPRPAAQPRP | 0.916
RRIRARPPRLPRPRPRPADWPRP | 0.984
RRIRARPPRLPRPRPRPAEEPRP | 0.697
RRIRARPPRLPRPRPRPAEHPRP | 0.193
RRIRARPPRLPRPRPRPAFEPRP | 0.702
RRIRARPPRLPRPRPRPAGFPRP | 0.365
RRIRARPPRLPRPRPRPAGNPRP | 0.129
RRIRARPPRLPRPRPRPAHGPRP | 0.694
RRIRARPPRLPRPRPRPAHIPRP | 0.241
RRIRARPPRLPRPRPRPAKHPRP | 0.558
RRIRARPPRLPRPRPRPAKIPRP | 0.321
RRIRARPPRLPRPRPRPAMEPRP | 0.372
RRIRARPPRLPRPRPRPANTPRP | 0.0584
RRIRARPPRLPRPRPRPAPHPRP | 0.814
RRIRARPPRLPRPRPRPAQMPRP | 0.743
RRIRARPPRLPRPRPRPAQSPRP | 0.538
RRIRARPPRLPRPRPRPARAPRP | 0.834
RRIRARPPRLPRPRPRPARYPRP | 0.12
RRIRARPPRLPRPRPRPASEPRP | 0.285
RRIRARPPRLPRPRPRPASFPRP | 0.387
RRIRARPPRLPRPRPRPATEPRP | 0.795
RRIRARPPRLPRPRPRPATFPRP | 0.129
RRIRARPPRLPRPRPRPAWTPRP | -0.0258
RRIRARPPRLPRPRPRPCALPRP | 0.00197
RRIRARPPRLPRPRPRPCAQPRP | 0.483
RRIRARPPRLPRPRPRPCCCPRP | 0.689
RRIRARPPRLPRPRPRPCCYPRP | 0.0589

Sequence | shrunken log2 fold change
RRIRARPPRLPRPRPRPCDIPRP | -0.2
RRIRARPPRLPRPRPRPCDPPRP | -0.106
RRIRARPPRLPRPRPRPCEEPRP | 0.622
RRIRARPPRLPRPRPRPCEYPRP | -0.133
RRIRARPPRLPRPRPRPCGDPRP | -0.239
RRIRARPPRLPRPRPRPCHSPRP | 0.0213
RRIRARPPRLPRPRPRPCIAPRP | -0.0146
RRIRARPPRLPRPRPRPCIKPRP | 0.126
RRIRARPPRLPRPRPRPCILPRP | -1.06
RRIRARPPRLPRPRPRPCIYPRP | -0.0979
RRIRARPPRLPRPRPRPCKPPRP | -0.331
RRIRARPPRLPRPRPRPCKRPRP | -0.0822
RRIRARPPRLPRPRPRPCLGPRP | 0.0637
RRIRARPPRLPRPRPRPCLQPRP | -0.0914
RRIRARPPRLPRPRPRPCMEPRP | 0.0522
RRIRARPPRLPRPRPRPCMYPRP | -0.49
RRIRARPPRLPRPRPRPCNRPRP | 0.0805
RRIRARPPRLPRPRPRPCPKPRP | -0.0619
RRIRARPPRLPRPRPRPCPPPRP | 0.156
RRIRARPPRLPRPRPRPCPQPRP | -0.00027
RRIRARPPRLPRPRPRPCPVPRP | 0.0768
RRIRARPPRLPRPRPRPCQAPRP | 0.483
RRIRARPPRLPRPRPRPCRSPRP | -0.0342
RRIRARPPRLPRPRPRPCSDPRP | 0.431
RRIRARPPRLPRPRPRPCSKPRP | 0.0365
RRIRARPPRLPRPRPRPCSQPRP | -0.172
RRIRARPPRLPRPRPRPCTFPRP | -0.365
